Results on two molecules are retold here after publication PMC2064791 (The Journal of Cell Biology, 2007).

The assay has as its target T1, GST-tagged Dhh1(46–461) (S. cerevisiae, UniProt P39517 46-461).
T1 sequence (looked up): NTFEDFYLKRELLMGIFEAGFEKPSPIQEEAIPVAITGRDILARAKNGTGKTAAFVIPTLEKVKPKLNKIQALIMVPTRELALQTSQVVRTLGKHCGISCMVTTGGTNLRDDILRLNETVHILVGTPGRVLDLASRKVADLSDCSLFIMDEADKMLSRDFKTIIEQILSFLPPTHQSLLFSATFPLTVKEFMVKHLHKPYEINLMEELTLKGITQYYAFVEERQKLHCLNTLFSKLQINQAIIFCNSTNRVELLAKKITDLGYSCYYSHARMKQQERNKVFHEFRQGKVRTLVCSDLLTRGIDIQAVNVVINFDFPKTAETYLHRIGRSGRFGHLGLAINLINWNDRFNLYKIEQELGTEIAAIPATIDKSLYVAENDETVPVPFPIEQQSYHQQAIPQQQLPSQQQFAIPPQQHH
The assay is described as follows: pull-down.

B1: His-Dcp2(102–300)-Flag (domain or fragment, S. cerevisiae, UniProt P53550 102-300, looked up)
chain: SIPVRGAAIFNENLSKILLVQGTESDSWSFPRGKISKDENDIDCCIREVKEEIGFDLTDYIDDNQFIERNIQGKNYKIFLISGVSEVFNFKPQVRNEIDKIEWFDFKKISKTMYKSNIKYYLINSMMRPLSMWLRHQRQIKNEDQLKSYAEEQLKLLLGITKEEQIDPGRELLNMLHTAVQANSNNNAVSNGQVPSSQE
For B1, the binding result is “binds”.

B2: His-Dcp2(1–300)-Flag (domain or fragment, S. cerevisiae, UniProt P53550 1-300, looked up)
chain: MSLPLRHALENVTSVDRILEDLLVRFIINCPNEDLSSVERELFHFEEASWFYTDFIKLMNPTLPSLKIKSFAQLIIKLCPLVWKWDIRVDEALQQFSKYKKSIPVRGAAIFNENLSKILLVQGTESDSWSFPRGKISKDENDIDCCIREVKEEIGFDLTDYIDDNQFIERNIQGKNYKIFLISGVSEVFNFKPQVRNEIDKIEWFDFKKISKTMYKSNIKYYLINSMMRPLSMWLRHQRQIKNEDQLKSYAEEQLKLLLGITKEEQIDPGRELLNMLHTAVQANSNNNAVSNGQVPSSQE
B2: the binding result is reported as “binds”.
